Substrate in the data set: C[C@]1(Cn2ccnn2)[C@H](C(=O)O)N2C(=O)C[C@H]2S1(=O)=O
The note with it: Enterobacter cloacae.

Description: Activity of Enterobacter cloacae beta-lactamase P99 by spectrophotometry

B1: Beta-lactamase (Enterobacter cloacae), P05364 (protein)
chain: MMRKSLCCALLLGISCSALATPVSEKQLAEVVANTITPLMKAQSVPGMAVAVIYQGKPHYYTFGKADIAANKPVTPQTLFELGSISKTFTGVLGGDAIARGEISLDDAVTRYWPQLTGKQWQGIRMLDLATYTAGGLPLQVPDEVTDNASLLRFYQNWQPQWKPGTTRLYANASIGLFGALAVKPSGMPYEQAMTTRVLKPLKLDHTWINVPKAEEAHYAWGYRDGKAVRVSPGMLDAQAYGVKTNVQDMANWVMANMAPENVADASLKQGIALAQSRYWRIGSMYQGLGWEMLNWPVEANTVVEGSDSKVALAPLPVAEVNPPAPPVKASWVHKTGSTGGFGSYVAFIPEKQIGIVMLANTSYPNPARVEAAYHILEALQ
A word on the Km: it is the concentration of substrate that gives half-maximal velocity. For the protein B1, the Km was determined as 300 µM.

Values taken from ChEMBL document CHEMBL1687818, “Mechanistic studies of the inactivation of TEM-1 and P99 by NXL104, a novel non-beta-lactam beta-lactamase inhibitor” (Antimicrob Agents Chemother, 2010).
